Assay results as given in patent US20210353708A1.
Where no end group is shown, it is not given here. [ ]: non-standard residue; d: D form.

Columns and labels:
[1] = target: recombinant BΔg protein (recombinant human brevican, enzymatically deglycosylated, His-tagged) (human) (UniProt Q96GW7); experiment: BLI (Octet RED), His-tagged BΔg on Ni-NTA sensors, peptide in solution, steady state analysis
[2] = target: recombinant BΔg protein (recombinant human brevican, enzymatically deglycosylated, His-tagged) (human) (UniProt Q96GW7); experiment: BLI (Octet RED), steady state analysis

recombinant BΔg protein (recombinant human brevican, enzymatically deglycosylated, His-tagged) (human), sequence (Q96GW7 23-911, stated change not applied, form in doubt): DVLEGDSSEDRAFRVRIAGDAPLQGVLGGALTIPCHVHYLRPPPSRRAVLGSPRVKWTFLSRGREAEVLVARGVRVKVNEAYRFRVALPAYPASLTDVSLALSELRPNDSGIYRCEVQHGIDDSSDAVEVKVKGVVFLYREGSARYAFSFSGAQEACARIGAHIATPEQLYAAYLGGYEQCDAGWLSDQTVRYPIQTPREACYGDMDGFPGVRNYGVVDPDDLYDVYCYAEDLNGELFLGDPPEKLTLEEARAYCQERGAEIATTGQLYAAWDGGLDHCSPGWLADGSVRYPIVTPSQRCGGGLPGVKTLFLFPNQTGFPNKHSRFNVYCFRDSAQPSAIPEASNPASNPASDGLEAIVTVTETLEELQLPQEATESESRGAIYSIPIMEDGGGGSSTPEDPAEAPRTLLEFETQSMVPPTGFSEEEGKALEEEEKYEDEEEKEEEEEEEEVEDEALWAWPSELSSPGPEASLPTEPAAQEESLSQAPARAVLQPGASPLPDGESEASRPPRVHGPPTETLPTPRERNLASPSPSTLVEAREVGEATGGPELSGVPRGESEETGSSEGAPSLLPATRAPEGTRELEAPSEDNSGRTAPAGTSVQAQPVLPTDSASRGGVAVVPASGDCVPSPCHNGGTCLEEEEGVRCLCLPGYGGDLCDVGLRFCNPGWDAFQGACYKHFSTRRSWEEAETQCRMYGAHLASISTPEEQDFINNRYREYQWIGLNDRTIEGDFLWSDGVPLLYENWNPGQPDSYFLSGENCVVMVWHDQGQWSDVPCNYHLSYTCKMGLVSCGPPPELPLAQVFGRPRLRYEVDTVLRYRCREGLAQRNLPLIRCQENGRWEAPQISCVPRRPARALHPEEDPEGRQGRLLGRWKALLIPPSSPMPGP

B1: BTP-8, not labeled with a fluorophore (peptide)
peptide: [dT][dI][dR][dK][dL][dV][dR][dH]-NH2
modifications: N-terminus assumed
SMILES: CC[C@@H](C)[C@@H](NC(=O)[C@H](N)[C@H](C)O)C(=O)N[C@H](CCCNC(=N)N)C(=O)N[C@H](CCCCN)C(=O)N[C@H](CC(C)C)C(=O)N[C@@H](C(=O)N[C@H](CCCNC(=N)N)C(=O)N[C@H](Cc1c[nH]cn1)C(N)=O)C(C)C
Kd [1]: 1570 nM

B2: BTP-7 conjugated to a fluorescein dye (peptide)
peptide: [dT][dK][dW]G[dH][dV][dN][dK]
modifications: not fully specified (C-terminus); also: FITC on side chain of C-terminal Lys: own Lys8 or an added Lys, not given here
fold lower binding affinity than the unlabeled BTP-7 [2]: > 10 fold
Kd [1]: 3800 nM

B3: BTP-9, not labeled with a fluorophore (peptide)
peptide: [dA][dD][dR][dR][dQ][dR][dA][dI]-NH2
modifications: N-terminus assumed
SMILES: CC[C@@H](C)[C@@H](NC(=O)[C@@H](C)NC(=O)[C@@H](CCCNC(=N)N)NC(=O)[C@@H](CCC(N)=O)NC(=O)[C@@H](CCCNC(=N)N)NC(=O)[C@@H](CCCNC(=N)N)NC(=O)[C@@H](CC(=O)O)NC(=O)[C@@H](C)N)C(N)=O
Kd [1]: 1500 nM
